Results taken from a protein production outcome set (Wang et al. 2014).

Assay: label from the status in PepcDB records
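Note: failed if final PepcDB status was selected cloned or expressed and not failed if soluble or beyond.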

Sequence | protein production
MGVDMELKVEASLREARTLLAAKQYSQAANVAHSLFCTCHKFNLQIEKASVLLLLAEIHKKSGNAVLGLPYALASISFCQSFNLDLLKASATLTLAELWLGLGSNHTKRALDLLHGAFPMILGHGGLELRARAYIFEANCYLSDPSSSVSTDSDTVLDSLRQASDELQALEYHELAAEASYLMAMVYDKLGRLDEREEAASLFKKHIIALENPQDVEQNMA | failed
MYTNRWEGLDEFVAVAECGQFTAAALRLGVSSSHVSRQIVRLEERLQTRLLYRSTRKVALTEAGQTFLHHCQRLQDGREEALRAVGDLASEPKGLLRMTCAVAYGERFITPLVTRFMELYPQLRVDIELSNDTLDLVHEGMDLAIRLGRLQDSRMVATRLAPRQMYLCASPSYLERYGRPHSLSELSRHNCLIGGSDTWQLQQNGREFSQRVQGNWRCNSGQAVLDAALQGVGLCQLPDYYVQKHLKEGALVSLLEAHQPPNTAVWALYPQQRHLSPKVRKLVDYLKEGLAMQDEYRQ | failed
MGYSGKPHHQLDGEIRESTDGKKWVIAGIPSRSPLKQINLSPGVTVTETEEQDQCPTTPTAVSVRIPRVPPCPAAPKKRKPSLKCSYVTVTRDYFSPPDLETVFIQRASY | failed
MNYSRIAEAIEYIRAHYKEQPGLDEVAEKVHLSPFHFQRIFTEWAGISPKKFLQYISLEHHHHHH | failed
MNIRRARPDDLMNMQHCNLLCLPENYQMKYYFYHGLSWPQLSYIAEDEDGKIVGYVLAKMEEDPDDVPHGHITSLAVKRSHRRLGLAQKLMDQASRAMIENFSAKYVSLHVRKSNRAALHLYSNTLNFQVSEVEPKYYADGEDAYAMKRDLSQMADELRRQLVLKKGRYVVLGSKENQGSTLPGSEEASQQENLAGGDSGSDGKDSTDVQDSLQTLGSAS | failed
MKAILRASRIGRVILRYRLDALLEGTPAERWLRLAKPFVPRASAEIAAQSRGARLRLALQELGPIFVKFGQILSTRRDLIPADVAEELTLLQDRVKPFDGQAARLIVEAALGLPVSVAFASFDTVPLASASIAQVHAATLPPDANGVRREVVVKVLRPEIERQIDADIALLHSLATLVERTHPRADKIRPREVVAEIEGTLAAELDLQREGANASVLRRFWEGSDDLYVPEVIWSHTAERALTLERVYGIPSDDIAKLDAAGIDRKALAAKGVRVFYTQVFRDNFFHADAHAGNIWVDSDPERRLNPRFIALDFGIMGQLSQEDQYYLAENFMAIFHKDYRRMAELHVEAGWMPSNVRIDELEAAARSVCEPYFNRPLSEISLAQVLIKLFRVAQRYELTLQPQLILLQKTLLNIEGVGRQLDPRLDIWAVARPVLERILRERYSPRRVLRELSKRLPEIMTHAPDMPRLVYSWLTQQVEGRHQIAIRSPELLALDLSLRKLQTRVVTAITGSGLLVVAAVLYGLHPDGWYLGTVPVWSWISGGAGSAALLVAWLRR | failed
MEGMKGAVLITGASRGIGEATARLLHAKGYRVGLMARDEKRLQALAAELEGALPLPGDVREEGDWARAVAAMEEAFGELSALVNNAGVGVMKPVHELTLEEWRLVLDTNLTGAFLGIRHAVPALLRRGGGTIVNVGSLAGKNPFKGGAAYNASKFGLLGLAGAAMLDLREANVRVVNVLPGSVDTGFAGNTPGQAWKLKPEDVAQAVLFALEMPGHAMVSEIELRPTRPTSGPR | not failed
MKLIDLHVHSYHSDGVLAPAVLVAMAAERGLASLAIADHDAVDGIDEAVAEGVRLGVDVIPAVELSVELGRFSDLHILGYCIDHHDPAFRDKLAGFRSARDNRGKAILEKINRRLLHSRKAPLSYDEVLSMAGGAVGRPHIGRVLVDNGYARDMEDAFRRYLIPCNVPKRYMPAGEAIAEIRRIGGVSVLAHPPTITDDRRRLRQVVEQLAQLGLDGLEVFNNLCFKDDMLYLERLAEEFGLLMTGGSDFHGFEDDVELGRGRGGLAVAHSLAEKVKELAAQRKHSHA | failed
MHYSYLEPGLHAELAAITPDEAVAHLRNHLGNLLLDPAVTAAYINRLGVLTPEETTPSTRAWLTYLLVRYCDLLPLDLAAQRILAQVTGNAAPHLRDLERCAIPDPIERKLERLGAGEDSERNRAMLLALLHEYPYSPAIMERLMTVELALDIPVGGEWLPSVRPPAGLLRPLHERLFIHAMMQGDTERALQHAAACVPDNPSPHLLNHLAELHARLGDTQQALNLYGASLEADPLQHPVRLRMEALAKPPRAHADALHHRIAICLYSFNKAELLERTLSSLAASQTGEAHILVLLNGCTDDSATRVAAVNERLFNGRLEVIDMPINIGAPAARNWLLAKQTVREADFVAFLDDDVDVPAAWLPRLVGNLEEHPGAGVAGTRVRNPGDVPRLQYLYRNISVARPGLIRLSLDTPTLHHDTGFYDFTRSTTSVMGCCHVFTRRALDEVPAFDLRFSPSQMDDIAHDIDLALAGFDVLYTGDVVCVHHQMSGLGRANATDWKRFGNVAGNDVKFYYRFADRLDALGRLNNLGFMPDMPPALEHHHHHH | not failed
MGERSDSRLAAMRTDELNIDVVLVQRLVAGQFPRWAGLGVEAVDSGGTSNAMYRLGADLVVRLPRRAGAEGDVAKEHRWLPWLAPRLPVAVPVPLGQGLPAGNYPFRWSVYRWLDGATPDVGHLVAPGLLAEDLAGFIDALHRVDPAGGPDSYRSEHLAVRDTVTREAIEELRGVVDADAARAVWETALRAPVWAGPPVWIHADLQPGNVLVDRGRLGAVIDFGCLGLGDPAVDLIVAWYVLPGDVREAFRAAVAADDASWARGRGWALSIALVELRYYRDTNPVMAGHARRVIREVLDGRER | failed
MDLVPLKLVTIVAESLLEKRLVEEVKRLGAKGYTITPARGEGSRGIRSVDWEGQNIRLETIVSEEVALRILQRLQEEYFPHYAVIAYVENVWVVRGEKYV | not failed
MIILPKTLYEEMLNHCLNSLPIEACGLLGGVIEDEKRIVKKVYLLTNVDQSPEHFSMDPLEQFAAVKDMRKNGWVLLGNFHSHPTTPARPSEEDKRLAFDKSLSYLILSLMDEKNPVLKSFRIYESYVEEEEIQIILEHHHHHH | failed
MSLKVQGYANVVTLPNVTGRVIIVGDIHGCRAQLEDLLRAVSFKQGSDTLVAVGDLVNKGPDSFGVVRLLKRLGAYSVLGNHDAKLLKLVKKLGKKECLKGRDAKSSLAPLAQSIPTDVETYLSQLPHIIRIPAHNVMVAHAGLHPQRPVDRQYEDEVTTMRNLIEKEQEATGGVTLTATEETNDGGKPWASMWRGPETVVFGHDARRGLQEQYKPLAIGLDSRCVYGGRLSAAVFPGGCIISVPGWNGASAAAEGHHHHHH | not failed
MMTAPGIYYDGRTSARRTVRLTLEGNRLLVAGEGVETSAELSRLAISSPLSTARRSVRFPSGALCEVSDTRFVDELMRRQGKGRASAAIHRWERSLPLALVALVATVAVVWGFVAFGIPALADKVARAVPPVTEVSLGRESLAMLDKLVFTPSRLPDARRRDIAAQFSRMGRDLPFAAGYRLEFRRSDQLGANALALPSGIIVVTDRLVEIAQSDDELIGVLAHEMGHVRHRHALRHVLQNSATGLIIAAITGDITSITSLAATLPTVLVDASYSRSFETEADDAAVAYLKRRGIPLKSYAAMLGRLEAEHRKKQEEKGKKEKKSLGDYFSTHPVTEERIKRVLEAGRLEHHHHHH | not failed
MEDGMNTFDLYYWPVPFRGQLIRGILAHCGCSWDEHDVDAIEGLMDCGAEKQPVAFMGPPVLIDRERNFAISQMPAIAIYLGERLDILPATVEGRTLSAKIVNDANDVLDELTLNGGREMWTPEKWQEFVPRLQKWIRIFADTGARNGLSAASGFMLGTEKIGVADIVTAILWTTVADRFPAIKGIIEDTSPIIWGLSRRVVATAPLAALNSKSFEEYGNAYCGGEIEKSLRKVAS | not failed
MSVKVSVDDIDGITEVLNVYMNAAESGTGEEMSAAFHKDATIFGYVGDKLAFNGPIKDLYDWHNSNGPAKNVQSRITNIDIVGTVAHARVEAENWTNFKFSDLFLLLKLDGKWTIVNKVFHLHA | not failed
GEVKQIVGTPRDITQRKRREQMLKSRRRKIEALYRATSGLLSVETRDAVPGRIAEVLQEVFDFPLRHVGLVEGEMLVPKETVGEDLSRMPEPKAQPLSEDLVATRAIQAGEAVVVESTGGLENDLDYGTLSTLAGIPIGGHGAVVVGKEAGTFDALDLRLLEVLGGYGTLVLGRLEREERLVQAREEAEEAAQLKSAMLANMSHEVRTP | failed
MSYAGDITPLQAWEMLSDNPRAVLVDVRCEAEWRFVGVPDLSSLGREVVYVEWATSDGTHNDNFLAELRDRIPADADQHERPVIFLCRSGNRSIGAAEVATEAGITPAYNVLDGFEGHLDAEGHRGATGWRAVGLPWRQG | not failed
MAKKRITLPQNFDELITAGDVEALKAVYDKCELTAHNGRYSLNTALHYGGVPDELVIWLVEQGLDVNTLDYYGRTPLYKHATLGRDTVKLLYELGGDIQKPDTYGSTPLHTAAGFFRPKIVSFLIEKDADVNAKNDMGRTPLAEALATCRNSNVVQAAEIAEMLIKAGAEVVPEMAERVEIIGKDFEFHRENFNKDSLAETEAGLEKLYALFDVKPAPKRKIHDGVSPIIVKTGSWKEQYDELWEMLIPSSGAAKTVQGEVIRITGRVQDELYRNGGVNWDKDYRNMLNSLPNHFASGTPLSEEELKETKELISNIRANGEDEEVITERLRELSVLWVLLNPTPILLGKTNYNR | failed
MAQISQLSAVILAGGLARRMNGNEKGLCLLHQQPLISHILARLTPQVCTIYFNINRSFATYQQLYPQLTYYSDKIADFQGPLSGILSGFEKIDSEYLLFVPCDTPFLPKNLVTKLTNSLIMNEATIAYAHDGEQAHPTIALIHRSITPALASYLASGERRLYHFFKTQKSIAVDFSDQKNAFQNFNSLADLEQFSTISATRVDQSRLLGITGYSGTGKTTLLEKLIPILTANGIKVGLIKHSHHNVDIDKNGKDSHRLRTAGANPTIIVCQQRWALMTETPQQAVDFQQLITKFDPESVDLILVEGFKDEQFAKIQLHRQVIKKPLPELDEWTIATATDYPIARPNLLDINQIDKIADFIQQWLNN | failed
MKMDTGALTFQQKIYWLVKQIPLGRVATYGQIAALCGWPRHGRYVGYALYRVAPNSDIPWHRVVNAQGKISYAPQRRGTDELQRWRLAAEGIIFTAGDRINLRRYQWQPPATVYQQLIWPEGAATDSAKALEHHHHHH | not failed
MHMALIHSILMGAVAGMRSMTPLAAVANAARTGKLPADNGAPALLANPLASAGMLALAGGELAGDKMKTAPDRIVLPGMIARIATGVIVGTALAPREQRGIAALLGATTAVAAAYLTFNARMRAIERYGQTSTGVVEDAISVGAATLIVRDAAKR | failed
NRLPDAVVTVYPTFNSLQMLAHALRMPYHDMRIVSLTGRPWHEFDRALIERAEKIGILTDHEHTPSAIAMRMLDYGYEDYTMSVGTRMGNPQEQCLDTFSLREAADRDFERPNCVILSATRPFVCSRAPLGLSESAFMPLNGRTKMITKMPFRLVSLSCLELHRASSFWDIGFCTGSVSIEAKLNFPHLHITAFEIRPEGAELMPVNSRRFGAPGIAYRIGDFMEEDISSLAPPDAVFIGGHGGRLVEMIAKVHSVMTKGGLLVFNSVSEESRHLFLTGIEACGMELLSSIRLTADGNNPIDILQARKKE | not failed
VGDHDSHEVMQRLDALLPTLRERAQETEDLRRIPDDSMKALQETGFFRLLQPEQWGGYQADPVLFYSAVRKIASACGSTGWVSSIIGVHNWHLALFSQQAQEDVWGNDTDVRISSSYAPMGAGQVVDGGYTVNGAWAWSSGCDHASWAVLGGPVIKDGRPVDFVSFLIPREDYRIDDVWNVVGLRGTGSNTVVVEDVFVPTHRVLSFKAMSNLTAPGLERNTAPVYKMPWGTIHPTTISAPIVGMAYGAYDAHVEHQGKRVRAAFAGEKAKDDPFAKVRIAEASSDIDAAWRQLSGNVADEYALLVAGEEVPFELRLRARRDQVRATGRAISSIDKLFESSGATALANGTPLQRFWRDAHAGRVHAANDPERAYVMYGTGEFGLPITDTMV | not failed
